From the Immune Epitope Database (IEDB)

Biological target: HLA-A*11:01
Experiment: IEDB peptide-MHC binding, purified MHC/competitive/radioactivity; ≥ and ≤ were set here for values at or beyond the usual limits of such assays
[1] = source organism: Human immunodeficiency virus 1
[2] = source organism: Hepatitis B virus
[3] = source organism: Influenza A virus (A/Puerto Rico/8/1934(H1N1))

Row | Sequence | IC50 [1] [µM] | IC50 [2] [µM] | other results
1 | QMAVFIHNFK | 0.0084 | – | –
2 | GSTHVSWPK | – | 0.0031 | –
3 | IMPARFYPK | – | 0.0041 | –
4 | GTDNSVVLSR | – | 0.107 | –
5 | AVFIHNFKRK | 0.0071 | – | –
6 | KVFVLGGCR | – | 0.0065 | –
7 | ATQIPSYKK | – | – | IC50 (source organism: Homo sapiens): 0.128 µM
8 | YLAWVPAHK | 0.106 | – | –
9 | GVTAACSHAGK | – | – | IC50 [3]: 0.03 µM
10 | NVKNLYEKVK | – | – | IC50 [3]: 0.051 µM
11 | KVLFLDGIDK | 0.0077 | – | –
12 | AVDLSHFLK | 0.005 | – | –
13 | ESLFRAVITK | – | – | IC50 (source organism: Homo sapiens): 1.15 µM
14 | KVYLAWVPAHK | 0.0076 | – | –
15 | MTKILEPFR | 0.378 | – | –
16 | AVNHYFKTR | – | 0.061 | –
17 | GIPHPAGLK | 0.035 | – | –
18 | LSLDVSAAFY | – | 0.545 | –
19 | TTDLEAYFK | – | 0.0065 | –
20 | PVTIGECPK | – | – | IC50 [3]: 0.0026 µM
21 | RLADEGLNR | – | 0.245 | –
22 | QIYQEPFKNLK | 0.021 | – | –
23 | TVQPIVLPEK | 0.0024 | – | –
24 | ASQIYAGIK | 0.018 | – | –
25 | LTEKEGSYPK | – | – | IC50 [3]: 0.121 µM
26 | RMGVQMQRFK | – | – | IC50 [3]: 0.094 µM
27 | RAKWNNTLK | 0.188 | – | –
28 | LACAGLAYK | – | – | IC50 (source organism: Plasmodium falciparum): 0.207 µM
29 | GTKVVPRGK | – | – | IC50 [3]: 0.072 µM
30 | CALPFTSAR | – | 0.316 | –
